Assay [1] concerns CHO and SH-SY5Y cell lines. The assay can be described thus: Cytoprotection against mercaptoethanol-induced unfolded protein stress (DAPI count of dead cells). Type of assay: cell-based. The note with it: 3 mM mercaptoethanol for 24h. Here is the method:
Mercaptoethanol is a known inducer of unfolded protein stress by inhibiting the normal formation of disulfide bonds in the endoplasmic reticulum.
CHO and SH-SY5Y cell lines were cultured expressing wild type Parkin, D126E Parkin and an empty vector with 3 mM mercaptoethanol for 24h. They were stained with DNA binding fluorescent dye DAPI and fixed in ice cold methanol prior to drying.

For assay [2], the system named is apoptosis-associated (caspase) cleavage of human Parkin. Nature of the assay: Site directed mutagenesis of Parkin Asp residues: apoptosis-associated cleavage in stably transfected CHO and SH-SY5Y cell lines (T160 immunoblot). In kind it is cell-based. The note with it: 200 nanoM okadaic acid for 16 h. An excerpt: Site directed mutagenesis of […] 126 in parkin to a glutamate residue reduce the apoptosis associated cleavage of parkin. Caspases are proteinases that always cleave after an Asp residue and FIG. 3 indicated the cleavage takes place within the N-terminal 150 amino acid residues. We mutagenised the parkin expression vector to express human parkin where the Asp in the positions 86 plus 87,106, 115, 126 and 130 were substituted with and Glu. CHO and SHSY5Y cell lines were stably transfected with the expression vectors and used for testing the effect of the mutations on apoptosis-associated parkin cleavage. These cells and the cell lines expressing the normal Parkin were treated with 200 nanoM okadaic acid for 16 h and extracted for T160 immunoblotting. The CHO cell lines are represented in lanes 1-6 and the SH-SY5Y cell lines in lanes 7-12. Wild type Parkin is represented in lanes 1, 2, 7, 8; D126E in lanes 3, 4, 9, 10; D130E in lanes 5, 6, 11, 12. Lanes 1, 3, 5, 7, 9, 11 represent untreated cells and lanes 2, 4, 6, 8, 10, 12 represent okadaic treated cells. The positions of the 51 kDa and 38 kDa Parkin proteins are indicated by the upper and lower left arrows.
Caspases are proteinases that always cleave after an Asp residue. Cell lines were generated where Asp residues were changed to Glu residues to test if this amino acid position might represent the caspase cleavage sites. The Parkin expression vector used for generating the Parkin expressing K3 CHO and Park8 SH-SY5Y cell lines was changed by PCR mediated site directed mutagenesis so the nucleotide No.479 was changed from a cytosine to an adenine (ParkinD126E). The cDNA encoding Parkin was kindly provided by Dr. Mizuno, Juntendo University School of Medicine, Japan. The Parkin cDNA was PCR amplified using the primers: […]
The amplified Parkin cDNA was cloned into the Nhe I and EcoR I site of the pcDNA3.1/Zeo(−) vector and the Parkin cDNA sequence was checked by sequencing. To prepare the D126E mutant, the inventors performed site-directed mutagenesis using the Quickchange Mutagenesis Kit (Stratagene) according to the manufactures instructions. Complementary strands of the oligonucleotide: 5′-[…]-3′ were used for preparing the D126E mutated construct. Parkin vectors containing Parkin mutated for D130E and DD86, 87EE were constructed by analogous techniques. This vector was then transfected into SH-SYSY or CHO cells using FUGENE6 (Boehringer Mannheim) and stably transfected cell lines were selected using 25 microgram Zeocinl ml medium (SH-SY5Y cells) or 300 microgram Zeocin/ml medium (CHO cells). The sequences of the vectors were verified by DNA sequencing. The expression vectors were used to generate the stably transfected DD86, 87EE, D126E and D130E CHO and SH-SY5Y cell lines expressing Parkin protein with the indicated substitutions of amino acids. These cells and the cell lines expressing the normal Parkin were treated with 200 nanoM okadaic acid for 16 h and extracted for T160 immunoblotting. The CHO cell lines are represented in lanes FIG. 5, 1-6 and the SH-SY5Y cell lines in lanes 7-12. Wild type Parkin is represented in lanes 1, 2, 7, 8; D126E in lanes 3, 4, 9, 10; D130E in lanes 5, 6, 11, 12. Lanes 1, 3, 5, 7, 9, 11 represent untreated cells and lanes 2, 4, 6, 8, 10, 12 represent okadaic treated cells. The positions of the 51 kDa and 38 kDa Parkin proteins are indicated by the upper and lower left arrows.

Entries after “also recorded” stand apart in the source; their conditions may differ.

B1: D126E: human Parkin with Asp 126 substituted by Glu (SEQ ID NO: 4) (protein, listed as Homo sapiens)
chain: MIVFVRFNSSHGFPVEVDSDTSIFQLKEVVAKRQGVPADQLRVIFAGKELRNDWTVQNCDLDQQSIVHIVQRPWRKGQEMNATGGDDPRNAAGGCEREPQSLTRVDLSSSVLPGDSVGLAVILHTESRKDSPPAGSPAGRSIYNSFYVYCKGPCQRVQPGKLRVQCSTCRQATLTLTQGPSCWDDVLIPNRMSGECQSPHCPGTSAEFFFKCGAHPTSDKETSVALHLIATNSRNITCITCTDVRSPVLVFQCNSRHVICLDCFHLYCVTRLNDRQFVHDPQLGYSLPCVAGCPNSLIKELHHFRILGEEQYNRYQQYGAEECVLQMGGVLCPRPGCGAGLLPEPDQRKVTCEGGNGLGCGFAFCRECKEAYHEGECSAVFEASGTTTQAYRVDERAAEQARWEAASKETIKKTTKPCPRCHVPVEKNGGCMHMKCPQPQCRLEWCWNCGCEWNRVCMGDHWFDV
modifications: mat_peptide (1)..() Parkin with a D126E mutation
On to B1, for which the “Survival of cells expressing the Parkin variant compared to wild type Parkin” value in assay [1] is reported as “enhanced survival”. Moreover, the “Apoptosis-associated cleavage of mutated Parkin compared to wild type” value in assay [2] is given as “abrogated the cleavage; also recorded: drastically reduced parkin cleavage”.

For the origin of these results see patent US20040198650A1, “Means for inhibiting proteolytical processing of parkin” (priority 2001, published 2004).
